Data as given in article PMC2582609.

Assays:
[1] = biological target: NIPBL R1856G (CdLS missense mutation) GAL4-DNA-binding domain fusion (human) (UniProt Q6KC79); experiment: two-hybrid
[2] = biological target: NIPBL R1895T (CdLS missense mutation) GAL4-DNA-binding domain fusion (human) (UniProt Q6KC79); experiment: two-hybrid

- β-galactosidase activity compared to the wild-type construct [1]: 50%
- β-galactosidase activity compared to the wild-type construct [2]: 50%
Substance: full-length HDAC3 fused to the GAL4-activating domain (from UniProt O15379 1-428) (enzyme)
